In IntAct's records for PubMed 31515488:

B1: LIM/homeobox protein Lhx4 (Homo sapiens), Q969G2 (parent)
chain: MMQSATVPAEGAVKGLPEMLGVPMQQIPQCAGCNQHILDKFILKVLDRHWHSSCLKCADCQMQLADRCFSRAGSVYCKEDFFKRFGTKCTACQQGIPPTQVVRKAQDFVYHLHCFACIICNRQLATGDEFYLMEDGRLVCKEDYETAKQNDDSEAGAKRPRTTITAKQLETLKNAYKNSPKPARHVREQLSSETGLDMRVVQVWFQNRRAKEKRLKKDAGRHRWGQFYKSVKRSRGSSKQEKESSAEDCGVSDSELSFREDQILSELGHTNRIYGNVGDVTGGQLMNGSFSMDGTGQSYQDLRDGSPYGIPQSPSSISSLPSHAPLLNGLDYTVDSNLGIIAHAGQGVSQTLRAMAGGPTSDISTGSSVGYPDFPTSPGSWLDEMDHPPF
partner: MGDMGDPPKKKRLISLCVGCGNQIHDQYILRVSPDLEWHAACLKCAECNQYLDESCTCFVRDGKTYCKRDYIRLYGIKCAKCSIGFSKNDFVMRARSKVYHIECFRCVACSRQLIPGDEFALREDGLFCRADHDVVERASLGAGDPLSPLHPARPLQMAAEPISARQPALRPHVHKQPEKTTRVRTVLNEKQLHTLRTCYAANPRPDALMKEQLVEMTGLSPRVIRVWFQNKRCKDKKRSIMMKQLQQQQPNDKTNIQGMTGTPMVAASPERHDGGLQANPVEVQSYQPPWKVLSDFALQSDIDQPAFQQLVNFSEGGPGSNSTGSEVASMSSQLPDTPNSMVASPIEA
B2: Tektin-4 (Homo sapiens), Q8WW24 (parent)
chain: MAQTVPPCELPCKEYDVARNTGAYTSSGLATASFRTSKYLLEEWFQNCYARYHQAFADRDQSERQRHESQQLATETQALAQRTQQDSTRTVGERLQDTHSWKSELQREMEALAAETNLLLAQKQRLERALDATEVPFSITTDNLQCRERREHPNLVRDHVETELLKEAELIRNIQELLKRTIMQAVSQIRLNREHKETCEMDWSDKMEAYNIDETCGRHHSQSTEVQAHPYSTTFQESASTPETRAKFTQDNLCRAQRERLASANLRVLVDCILRDTSEDLRLQCDAVNLAFGRRCEELEDARYKLHHHLHKTLREITDQEHNVAALKQAIKDKEAPLHVAQTRLYLRSHRPNMELCRDAAQFRLLSEVEELNMSLTALREKLLEAEQSLRNLEDIHMSLEKDIAAMTNSLFIDRQKCMAHRTRYPTILQLAGYQ
partner: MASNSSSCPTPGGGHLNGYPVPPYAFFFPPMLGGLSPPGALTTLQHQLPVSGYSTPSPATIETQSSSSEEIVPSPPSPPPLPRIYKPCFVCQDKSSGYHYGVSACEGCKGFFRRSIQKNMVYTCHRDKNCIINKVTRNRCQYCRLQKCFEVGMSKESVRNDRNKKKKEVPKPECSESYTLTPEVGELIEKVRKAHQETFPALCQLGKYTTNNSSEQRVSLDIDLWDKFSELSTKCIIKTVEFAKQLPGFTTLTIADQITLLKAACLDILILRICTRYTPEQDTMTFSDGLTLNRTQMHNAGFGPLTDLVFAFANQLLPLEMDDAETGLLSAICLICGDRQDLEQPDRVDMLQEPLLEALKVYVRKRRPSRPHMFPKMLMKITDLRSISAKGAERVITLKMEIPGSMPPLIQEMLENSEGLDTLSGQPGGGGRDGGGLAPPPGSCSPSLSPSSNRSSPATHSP
B3: Ornithine decarboxylase antizyme 3 (Homo sapiens), Q9UMX2 (parent)
chain: MPCKRCRPSVYSLSYIKRGKTRNYLYPIWSPYAYYLYCYKYRITLREKMLPRCYKSITYKEEEDLTLQPRSCLQCSESLVGLQEGKSTEQGNHDQLKELYSAGNLTVLATDPLLHQDPVQLDFHFRLTSQTSAHWHGLLCDRRLFLDIPYQALDQGNRESLTATLEYVEEKTNVDSVFVNFQNDRNDRGALLRAFSYMGFEVVRPDHPALPPLDNVIFMVYPLERDVGHLPSEPP
partner: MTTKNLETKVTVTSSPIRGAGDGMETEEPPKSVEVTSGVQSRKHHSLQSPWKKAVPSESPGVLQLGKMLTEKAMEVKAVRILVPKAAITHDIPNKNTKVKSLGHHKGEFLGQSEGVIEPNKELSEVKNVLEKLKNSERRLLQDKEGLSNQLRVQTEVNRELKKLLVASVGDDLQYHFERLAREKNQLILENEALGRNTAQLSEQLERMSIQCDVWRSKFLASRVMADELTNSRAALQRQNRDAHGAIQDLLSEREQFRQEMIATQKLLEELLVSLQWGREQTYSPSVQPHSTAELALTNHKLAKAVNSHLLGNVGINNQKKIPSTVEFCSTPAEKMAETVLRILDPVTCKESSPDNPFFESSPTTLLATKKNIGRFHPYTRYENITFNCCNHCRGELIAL
B4: Progranulin (Homo sapiens), P28799 (parent)
chain: MWTLVSWVALTAGLVAGTRCPDGQFCPVACCLDPGGASYSCCRPLLDKWPTTLSRHLGGPCQVDAHCSAGHSCIFTVSGTSSCCPFPEAVACGDGHHCCPRGFHCSADGRSCFQRSGNNSVGAIQCPDSQFECPDFSTCCVMVDGSWGCCPMPQASCCEDRVHCCPHGAFCDLVHTRCITPTGTHPLAKKLPAQRTNRAVALSSSVMCPDARSRCPDGSTCCELPSGKYGCCPMPNATCCSDHLHCCPQDTVCDLIQSKCLSKENATTDLLTKLPAHTVGDVKCDMEVSCPDGYTCCRLQSGAWGCCPFTQAVCCEDHIHCCPAGFTCDTQKGTCEQGPHQVPWMEKAPAHLSLPDPQALKRDVPCDNVSSCPSSDTCCQLTSGEWGCCPIPEAVCCSDHQHCCPQGYTCVAEGQCQRGSEIVAGLEKMPARRASLSHPRDIGCDQHTSCPVGQTCCPSLGGSWACCQLPHAVCCEDRQHCCPAGYTCNVKARSCEKEVVSAQPATFLARSPHVGVKDVECGEGHFCHDNQTCCRDNRQGWACCPYRQGVCCADRRHCCPAGFRCAARGTKCLRREAPRWDAPLRDPALRQLL
partner: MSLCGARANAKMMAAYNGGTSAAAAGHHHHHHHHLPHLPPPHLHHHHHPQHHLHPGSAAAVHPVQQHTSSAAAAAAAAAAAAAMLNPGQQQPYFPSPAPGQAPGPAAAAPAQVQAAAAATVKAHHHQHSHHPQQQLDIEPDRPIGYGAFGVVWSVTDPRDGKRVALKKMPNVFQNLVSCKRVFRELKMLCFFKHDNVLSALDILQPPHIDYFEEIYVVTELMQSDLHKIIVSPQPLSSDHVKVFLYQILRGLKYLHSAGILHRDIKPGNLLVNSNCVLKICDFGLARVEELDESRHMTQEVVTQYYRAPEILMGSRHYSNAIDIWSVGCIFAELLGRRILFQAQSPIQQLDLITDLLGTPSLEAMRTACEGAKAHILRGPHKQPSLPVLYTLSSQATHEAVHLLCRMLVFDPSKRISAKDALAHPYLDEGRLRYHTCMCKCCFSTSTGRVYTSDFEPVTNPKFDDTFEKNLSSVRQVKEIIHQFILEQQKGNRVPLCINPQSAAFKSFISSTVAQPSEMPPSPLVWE

Variants of: B1
Details: with isl1_human ISL1, P61371

Row | Variant | effect of a mutation on the interaction
1 | MMQSATVPAEGAVKGLPEMLGVPMQQIPQCAGCNQHILDKFILKVLDRHWHSSCLKCADCQMQLADRCFSRAGSVYCKEDFFKRFGTKCTACQQGIPPTQVVRKAQDFVYHLHCFACIICNRQLATGDEFYLMEDGRLVCKEDYETAKQNDDSEAGAKRPRTTITAKQLETLKNAYKNSPKPARHVREQLSSETGLDMRVVQVWFQNRRAKEKRLKKDAGRHRWGQFYKSVKRSRGSSKQEKESSAEDCGVSDSELSFREDQILSELGHTNRIYGNVGDVTGGQLMNGSFSMDGTGQSYQDLRDGSPYGIPQSPSSISSLPSHAPLLSGLDYTVDSNLGIIAHAGQGVSQTLRAMAGGPTSDISTGSSVGYPDFPTSPGSWLDEMDHPPF [N328S] | with no effect

Variants of: B2
Details: with rara_human RARA

Row | Variant | effect of a mutation on the interaction
2 | MAQTVPPCELPCKEYDVARNTGAYTSSGLATASFRTSKYLLEEWFQNCYARYHQAFADRDQSERQRHESQQLATETQALAQRTQQDSTRTVGERLQDTHSWKSELQREMEALAAETNLLLAQKQRLERALDATEVPFSITTDNLQCRERREHPNLVRDHVETELLKEAELIRNIQELLKRTIMQAVSQIRLNREHKETCEMDWSDKMEAYNIDETCGRHHSQSTEVQAHPYSTTFQESASTPETRAKFTQDNLCRAQRERLASANLRVLVDCILRDTSEDLRLQCDAVNLAFGRRCEELEDARYKLHHHLHKTLREITDQEHNVAALKQAIKDKEAPLHVAQTRLYLRSHRPNMELCRDAAQFRLLSEVEELNMSLTALREKLLEAEQSLRNLEDIHMSLEKDTAAMTNSLFIDRQKCMAHRTRYPTILQLAGYQ [I404T] | disrupting interaction strength
3 | MAQTVPPCELPCKEYDVARNTGAYTSSGLATASFRTSKYLLEEWFQNCYARYHQAFADRDQSERQRHESQQLATETQALAQRTQQDSTRTVGERLQDTHSWKSELQREMEALAAETNLLLAQKQRLERALDATEVPFSITTDNLQCRERREHPNLVRDHVETELLKEAELIRNIQELLKRTIMQAVSQIRLNREHKETCEMDWSDKMEAYNIDETCGRHHSQSTEVQAHPYSTTFQESASTPETRAKFTQDNLCRAQRERLASANLRVLVDCILRDTSEDLRLQCDAVNLAFGRRCEELEDARYKLHHHLHKTLREITDQEHNVAALKQAIKDKEAPLHVAQTRLYLRSHRPNMELCRDAAQFRLLSEVEELNMSLTALREKLLEAEQSLRNLEDIHMSLEKDIAAMTKSLFIDRQKCMAHRTRYPTILQLAGYQ [N409K] | with no effect

Variants of: B3
Details: with go45_human BLZF1, Q9H2G9

Row | Variant | effect of a mutation on the interaction
4 | MPCKRCRPSVYSLSYIKRGKTRNYLYPIWSPYAYYLYCYKYRITLREKMLPRCYKSITYKEEEDLTLQPRSCLQCSESLVGLQEGKSTEQGNHDQLKELYSAGNLTVLATDPLLHQDPVQLDFHFRLTSQTSAHWHGLLCDRRLFLDIPYQALDQGNRESLTATLEYVEEKTNVDSVFVNFQNDRNDRGALLQAFSYMGFEVVRPDHPALPPLDNVIFMVYPLERDVGHLPSEPP [R193Q] | with no effect
5 | MPCKRCRPSVYSLSYIKRGKTRNYLYPIWSPYAYYLYCYKYRITLREKMLPRCYKSITYKEEEDLTLQPRSCLQCSESLVGLQEGKSTEQGNHDQLKELYSAGNLTVLATDPLLHQDPVQLDFHFRLTSQTSAHWHGLLCDRRLFLDIPYQALDQGNRESLTATLEYVEEKTNADSVFVNFQNDRNDRGALLRAFSYMGFEVVRPDHPALPPLDNVIFMVYPLERDVGHLPSEPP [V174A] | disrupting interaction strength

Variants of: B4
Details: with nlk_human NLK

Row | Variant | effect of a mutation on the interaction
6 | MWTLVSWVALTAGLVAGTWCPDGQFCPVACCLDPGGASYSCCRPLLDKWPTTLSRHLGGPCQVDAHCSAGHSCIFTVSGTSSCCPFPEAVACGDGHHCCPRGFHCSADGRSCFQRSGNNSVGAIQCPDSQFECPDFSTCCVMVDGSWGCCPMPQASCCEDRVHCCPHGAFCDLVHTRCITPTGTHPLAKKLPAQRTNRAVALSSSVMCPDARSRCPDGSTCCELPSGKYGCCPMPNATCCSDHLHCCPQDTVCDLIQSKCLSKENATTDLLTKLPAHTVGDVKCDMEVSCPDGYTCCRLQSGAWGCCPFTQAVCCEDHIHCCPAGFTCDTQKGTCEQGPHQVPWMEKAPAHLSLPDPQALKRDVPCDNVSSCPSSDTCCQLTSGEWGCCPIPEAVCCSDHQHCCPQGYTCVAEGQCQRGSEIVAGLEKMPARRASLSHPRDIGCDQHTSCPVGQTCCPSLGGSWACCQLPHAVCCEDRQHCCPAGYTCNVKARSCEKEVVSAQPATFLARSPHVGVKDVECGEGHFCHDNQTCCRDNRQGWACCPYRQGVCCADRRHCCPAGFRCAARGTKCLRREAPRWDAPLRDPALRQLL [R19W] | with no effect
